Tests used:
Test in all cases: EMSA; 10% glycerol, 20 mM HEPES pH 7.8, 45 mM KCl, 10 mM NaCl, 1 mM EDTA, 1 mM DTT, 0.2 ug/uL BSA, 0.1% NP-40, 50 ng poly-dIdC; 20 ng each GST protein; room temperature 30 min (heterodimers 4 C); 6% PAGE 0.25x TBE
Conditions in all cases: protein: recombinant; tags: GST (N-terminal, pGEX-6P-1); label: 32P-dCTP fill-in of the 5' (dG)5 overhangs of both strands (Methods; control probes are given with GGG)
[1] = target: T1, Oct6 DNA-binding domain (BD-Oct6) (Mus musculus (B6), UniProt P21952 317-416)
T1 sequence: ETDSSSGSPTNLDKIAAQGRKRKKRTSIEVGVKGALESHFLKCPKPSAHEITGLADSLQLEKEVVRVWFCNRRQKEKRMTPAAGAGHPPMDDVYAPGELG
Summary of the method: (§1)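 DNA binding of transcription factor DNA-binding domains to candidate cis-elements was read from band radioactivity in the expected shift region. The GST-tagged domains came from E. coli BL21 via glutathione-sepharose; probes were annealed oligonucleotides labelled with 32P-dCTP. Each assay used 20 ng protein, 40,000–50,000 cpm probe and 50 ng poly-dIdC for 30 min at room temperature, followed by 6% polyacrylamide electrophoresis in 0.25×TBE at 4°C.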

[2] = target: T2, Brn2 DNA-binding domain (BD-Brn2) (Mus musculus (B6), UniProt P31360 336-435)
T2 sequence: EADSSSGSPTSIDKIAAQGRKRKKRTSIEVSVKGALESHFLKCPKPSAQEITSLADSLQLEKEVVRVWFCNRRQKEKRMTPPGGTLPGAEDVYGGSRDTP
Summary of the method: as §1

[3] = target: Pax6 DNA-binding domain (BD-Pax6) (Mus musculus (B6), UniProt P63015 190-289)
Summary of the method: as §1

Chain of Pax6 DNA-binding domain (BD-Pax6) (P63015 190-289): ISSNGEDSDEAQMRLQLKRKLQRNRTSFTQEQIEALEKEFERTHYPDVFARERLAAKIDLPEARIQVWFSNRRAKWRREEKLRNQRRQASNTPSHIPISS

B1: 85 (dsDNA)
DNA 1: GGGGGACATATGCAATTGTTTCCTGTATTATAGTAGAGATCCCCC
DNA 2: GGGGGATCTCTACTATAATACAGGAAACAATTGCATATGTCCCCC
Question: What does the source list for B1?
Answer: binding result [1]: no binding; binding result [2]: no binding; binding result [3]: binds

B2: 79 (dsDNA)
DNA 1: GGGGGTGATAGTAACAAAAACCATTTTGTTTTTGGCTCCCCC
DNA 2: GGGGGAGCCAAAAACAAAATGGTTTTTGTTACTATCACCCCC
Question: Does B2 bind [1]?
Answer: Result: no binding

Question: Does B2 bind [2]?
Answer: Result: no binding

Question: Does B2 bind [3]?
Answer: Result: no binding

B3: 86 (dsDNA)
DNA 1: GGGGGAGTTTAGTTTGTAGAGTACTTACCTAGCAGCACAAAGCCCTGCCCCC
DNA 2: GGGGGCAGGGCTTTGTGCTGCTAGGTAAGTACTCTACAAACTAAACTCCCCC
Question: Does B3 bind [1]?
Answer: Result: no binding

Question: Does B3 bind [2]?
Answer: Result: no binding

Question: Does B3 bind [3]?
Answer: Result: no binding

B4: 90 (dsDNA)
DNA 1: GGGGGTGCTGTTTTTTGTTACTGTCACTAATTACATTTTAAATTATCCCCC
DNA 2: GGGGGATAATTTAAAATGTAATTAGTGACAGTAACAAAAAACAGCACCCCC
Question: Does B4 bind [1]?
Answer: Result: binds

Question: Does B4 bind [2]?
Answer: Result: binds

Question: Does B4 bind [3]?
Answer: Result: binds

B5: 89 (dsDNA)
DNA 1: GGGGGCTACCACACCCAACCTCTAGTAAAGGTTTACAAAATGAATGACCCCC
DNA 2: GGGGGTCATTCATTTTGTAAACCTTTACTAGAGGTTGGGTGTGGTAGCCCCC
Question: Which results are given for B5?
Answer: binding result [1]: no binding; binding result [2]: no binding; binding result [3]: binds

B6: 80 (dsDNA)
DNA 1: GGGGGCATCCCAAATTGTTTTCTCACTTTTGTACCACAGATAGATCCCCC
DNA 2: GGGGGATCTATCTGTGGTACAAAAGTGAGAAAACAATTTGGGATGCCCCC
Question: Which results are given for B6?
Answer: binding result [1]: binds; binding result [2]: no binding; binding result [3]: no binding

B7: 83 (dsDNA)
DNA 1: GGGGGGTCCAAGTTTTGTGACCCTTTAATACAGTTAGATCCCCCC
DNA 2: GGGGGGATCTAACTGTATTAAAGGGTCACAAAACTTGGACCCCCC
Question: Does B7 bind [1]?
Answer: Result: binds

Question: Does B7 bind [2]?
Answer: Result: no binding

Question: Does B7 bind [3]?
Answer: Result: binds

B8: 88 (dsDNA)
DNA 1: GGGGGTGTTTTGTTTTGTTTTTTGTATTGGGAAGTGGGCCCCC
DNA 2: GGGGGCCCACTTCCCAATACAAAAAACAAAACAAAACACCCCC
Question: Which results are given for B8?
Answer: binding result [1]: no binding; binding result [2]: no binding; binding result [3]: no binding

B9: 84 (dsDNA)
DNA 1: GGGGGTATGAATCACAATGTAAATATCTGTGTTTACCCCC
DNA 2: GGGGGTAAACACAGATATTTACATTGTGATTCATACCCCC
Question: What does the source list for B9?
Answer: binding result [1]: no binding; binding result [2]: no binding; binding result [3]: binds

B10: 87 (dsDNA)
DNA 1: GGGGGTTATGACTGTTTAATAATATATATTGTGTTCTGGCCCCCC
DNA 2: GGGGGGCCAGAACACAATATATATTATTAAACAGTCATAACCCCC
Question: Does B10 bind [1]?
Answer: Result: binds

Question: Does B10 bind [2]?
Answer: Result: binds

Question: Does B10 bind [3]?
Answer: Result: binds

B11: 82 (dsDNA)
DNA 1: GGGGGACTATTTATTTGTGTTTTCCTATTCACTTTACATCCCCC
DNA 2: GGGGGATGTAAAGTGAATAGGAAAACACAAATAAATAGTCCCCC
Question: Does B11 bind [1]?
Answer: Result: binds

Question: Does B11 bind [2]?
Answer: Result: no binding

Question: Does B11 bind [3]?
Answer: Result: no binding

B12: 81 (dsDNA)
DNA 1: GGGGGAGAGTGCTGGTATTAAAAGGCACAAACTTTCTTTCCCCC
DNA 2: GGGGGAAAGAAAGTTTGTGCCTTTTAATACCAGCACTCTCCCCC
Question: Does B12 bind [1]?
Answer: Result: no binding

Question: Does B12 bind [2]?
Answer: Result: no binding

Question: Does B12 bind [3]?
Answer: Result: no binding

From article PMC3713010, “Sox2 Transcriptionally Regulates Pqbp1, an Intellectual Disability-Microcephaly Causative Gene, in Neural Stem Progenitor Cells”
